FireProtDB (doi:10.1021/bi100877y)
Where “and” joins values, the source holds several entries; their conditions need not be identical. Equal entries are not always repeated.

B1: Outer membrane porin C, P06996 (parent)
chain: MKVKVLSLLVPALLVAGAANAAEVYNKDGNKLDLYGKVDGLHYFSDNKDVDGDQTYMRLGFKGETQVTDQLTGYGQWEYQIQGNSAENENNSWTRVAFAGLKFQDVGSFDYGRNYGVVYDVTSWTDVLPEFGGDTYGSDNFMQQRGNGFATYRNTDFFGLVDGLNFAVQYQGKNGNPSGEGFTSGVTNNGRDALRQNGDGVGGSITYDYEGFGIGGAISSSKRTDAQNTAAYIGNGDRAETYTGGLKYDANNIYLAAQYTQTYNATRVGSLGWANKAQNFEAVAQYQFDFGLRPSLAYLQSKGKNLGRGYDDEDILKYVDVGATYYFNKNMSTYVDYKINLLDDNQFTRDAGINTDNIVALGLVYQF

Variants of: B1
Settings: Escherichia coli (strain K12), pH 7, Thermal, phosphate 50 mM, structure 2J1N, whole UniProt chain shown

Variant	Tm (DSC) [°C]	change of melting temperature, mutant - wild type (higher = more stable) (DSC) [°C]	unfolding enthalpy (calorimetric) (DSC) [kJ/mol]	change of melting temperature, mutant - wild type (higher = more stable) (CD)	Tm (CD) [°C]
MKVKVLSLLVPALLVAGAANAAEVYNKDGNKLDLYGKVDGLHYFSDNKDVDGDQTYMRLGFKGETQVTDQLTGYGQWEYQIQGNSAENENNSWTAVAFAGLKFQDVGSFDYGRNYGVVYDVTSWTGVLPEFGGDTYGSDNFMQQRGNGFATYRNTDFFGLVDGLNFAVQYQGKNGNPSGEGFTSGVTNNGRDALRQNGDGVGGSITYDYEGFGIGGAISSSKRTDAQNTAAYIGNGDRAETYTGGLKYDANNIYLAAQYTQTYNATRVGSLGWANKAQNFEAVAQYQFDFGLRPSLAYLQSKGKNLGRGYDDEDILKYVDVGATYYFNKNMSTYVDYKINLLDDNQFTRDAGINTDNIVALGLVYQF [R95A D126G]	73.9	-13	803	–	–
MKVKVLSLLVPALLVAGAANAAEVYNKDGNKLDLYGKVDGLHYFSDNKDVDGDQTYMRLGFKGETQVTDQLTGYGQWEYQIQGNSAENENNSWTRVAFAGLKFQDVGSFDYGRNYGVVYDVTSWTGVLPEFGGDTYGSDNFMQQRGNGFATYRNTDFFGLVDGLNFAVQYQGKNGNPSGEGFTSGVTNNGRDALRQNGDGVGGSITYDYEGFGIGGAISSSKRTDAQNTAAYIGNGDRAETYTGGLKYDANNIYLAAQYTQTYNATRVGSLGWANKAQNFEAVAQYQFDFGLRPSLAYLQSKGKNLGRGYDDEDILKYVDVGATYYFNKNMSTYVDYKINLLDDNQFTRDAGINTDNIVALGLVYQF [D126G]	81.5	-5.44	1270	–	–
MKVKVLSLLVPALLVAGAANAAEVYNKDGNKLDLYGKVDGLHYFSDNKDVDGDQTYMHLGFKGETQVTDQLTGYGQWEYQIQGNSAENENNSWTRVAFAGLKFQDVGSFDYGRNYGVVYDVTSWTDVLPEFGGDTYGSDNFMQQRGNGFATYRNTDFFGLVDGLNFAVQYQGKNGNPSGEGFTSGVTNNGRDALRQNGDGVGGSITYDYEGFGIGGAISSSKRTDAQNTAAYIGNGDRAETYTGGLKYDANNIYLAAQYTQTYNATRVGSLGWANKAQNFEAVAQYQFDFGLRPSLAYLQSKGKNLGRGYDDEDILKYVDVGATYYFNKNMSTYVDYKINLLDDNQFTRDAGINTDNIVALGLVYQF [R58H]	87.3	0.31	1500	-1.5 °C and -1.1 °C and -2 °C	–
MKVKVLSLLVPALLVAGAANAAEVYNKDGNKLDLYGKVDGLHYFSDNKDVDGDQTYMRLGFKGETQVTDQLTGYGQWEYQIQGNSAENENNSWTCVAFAGLKFQDVGSFDYGRNYGVVYDVTSWTDVLPEFGGDTYGSDNFMQQRGNGFATYRNTDFFGLVDGLNFAVQYQGKNGNPSGEGFTSGVTNNGRDALRQNGDGVGGSITYDYEGFGIGGAISSSKRTDAQNTAAYIGNGDRAETYTGGLKYDANNIYLAAQYTQTYNATRVGSLGWANKAQNFEAVAQYQFDFGLRPSLAYLQSKGKNLGRGYDDEDILKYVDVGATYYFNKNMSTYVDYKINLLDDNQFTRDAGINTDNIVALGLVYQF [R95C]	84.6	-2.35	1240	-1.5 °C	68.4
MKVKVLSLLVPALLVAGAANAAEVYNKDGNKLDLYGKVDGLHYFSDNKDVDGDQTYMRLGFKGETQVTDQLTGYGQWEYQIQGNSAENENNSWTSVAFAGLKFQDVGSFDYGRNYGVVYDVTSWTDVLPEFGGDTYGSDNFMQQRGNGFATYRNTDFFGLVDGLNFAVQYQGKNGNPSGEGFTSGVTNNGRDALRQNGDGVGGSITYDYEGFGIGGAISSSKRTDAQNTAAYIGNGDRAETYTGGLKYDANNIYLAAQYTQTYNATRVGSLGWANKAQNFEAVAQYQFDFGLRPSLAYLQSKGKNLGRGYDDEDILKYVDVGATYYFNKNMSTYVDYKINLLDDNQFTRDAGINTDNIVALGLVYQF [R95S]	81.7	-5.26	1250	-1.8 °C and -6.8 °C	–
MKVKVLSLLVPALLVAGAANAAEVYNKDGNKLDLYGKVDGLHYFSDNKDVDGDQTYMRLGFKGETQVTDQLTGYGQWEYQIQGNSAENENNSWTAVAFAGLKFQDVGSFDYGRNYGVVYDVTSWTDVLPEFGGDTYGSDNFMQQRGNGFATYRNTDFFGLVDGLNFAVQYQGKNGNPSGEGFTSGVTNNGRDALRQNGDGVGGSITYDYEGFGIGGAISSSKRTDAQNTAAYIGNGDRAETYTGGLKYDANNIYLAAQYTQTYNATRVGSLGWANKAQNFEAVAQYQFDFGLRPSLAYLQSKGKNLGRGYDDEDILKYVDVGATYYFNKNMSTYVDYKINLLDDNQFTRDAGINTDNIVALGLVYQF [R95A]	81.3	-5.66	1080	–	–
MKVKVLSLLVPALLVAGAANAAEVYNKDGNKLDLYGKVDGLHYFSDNKDVDGDQTYMRLGFKGETQVTDQLTGYGQWEYQIQGNSAENENNSWTGVAFAGLKFQDVGSFDYGRNYGVVYDVTSWTDVLPEFGGDTYGSDNFMQQRGNGFATYRNTDFFGLVDGLNFAVQYQGKNGNPSGEGFTSGVTNNGRDALRQNGDGVGGSITYDYEGFGIGGAISSSKRTDAQNTAAYIGNGDRAETYTGGLKYDANNIYLAAQYTQTYNATRVGSLGWANKAQNFEAVAQYQFDFGLRPSLAYLQSKGKNLGRGYDDEDILKYVDVGATYYFNKNMSTYVDYKINLLDDNQFTRDAGINTDNIVALGLVYQF [R95G]	80.8	-6.19	1360	-1.8 °C	68.1
